Results on two molecules are retold here after PMC6082341 (2017).

Ends that are not written are not given here.

Sequences and labels used below:
B1: TNKS2 ARC5 (domain or fragment)
chain: GAMGSDLLRGDAALLDAAKKGCLARVKKLSSPDNVNCRDTQGRHSTPLHLAAGYNNLEVAEYLLQHGADVNAQDKGGLIPLHNAASYGHVDVAALLIKYNACVNATDKWAFTPLHEAAQKGRTQLCALLLAHGADPTLKNQEGQTPLDLVSADDVSALLTAAMPP
B2: 3BP2 TBM peptide (WT positive control) (peptide)
chain: LPHLQRSPPDGQSFRS
modifications: also: fluorescein or 5(6)-carboxyfluorescein linked via β-Ala, site not given here

In experiment [1] the target is T1, MERIT40 (two peptides) (fluorescein or 5(6)-carboxyfluorescein fluorophore; the fluorescein is linked via β-Ala). Kind of experiment: FP; MERIT40 I peptide (…).
The target in experiment [2] is T1, MERIT40 (two peptides). Kind of experiment: FP; MERIT40 II peptide (…).
In the experiment “TNKS2 ARC5” the target is B1. Kind of experiment: FP.

As a reminder, the Kd is the free concentration of one partner at which half of the binding sites on the other are occupied at equilibrium, for simple one-to-one binding. A lower Kd goes with higher affinity. For B1, the Kd with MERIT40 (two peptides) [1] was 530 nM; with MERIT40 (two peptides) [2], 3000 nM.

In the experiment with TNKS2 ARC5, B2 came in with a Kd of 390 nM.
